Patent US20260102461A1 (AIKIUM, published 2026)

T1: KAAG1 disordered region peptide, PGAAAAHLPRWPPPQLAASRREA (biotin (position not given))
T1 peptide: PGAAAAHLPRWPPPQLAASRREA

T2: CD74 disordered region peptide (CLIP), PPKPVSKMRMATPLLMQALPMGALP (biotin (position not given))
T2 peptide: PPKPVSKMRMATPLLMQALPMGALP

T3: CYSLTR2 N-terminal disordered region, MERKFMSLQPSISVSEMEPNGTFSNNNSRNCTIENFKREFFP (biotin (position not given))
T3 construct: also called CysLT2; CysLT2r
T3 peptide: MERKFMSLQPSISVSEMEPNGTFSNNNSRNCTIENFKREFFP

T4: CD40LG Epitope NKEETKKENSFEMQKGDQNPQIAAH (biotin (position not given))
T4 peptide: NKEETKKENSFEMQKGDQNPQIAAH

T5: KCNA6 Epitope QQQEQQPASGGGGQNGQQAMS (biotin (position not given))
T5 peptide: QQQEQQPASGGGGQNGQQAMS

T6: TNFRSF13B disordered region peptide, LPPELRRQRSGEVENNSDNSGRYQ (biotin (position not given))
T6 peptide: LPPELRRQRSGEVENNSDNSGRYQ

T7: GMERKFMSLQPSISVSEMEPNGTFSNNNSRNCTIENFKREFFP (biotinylated, position not given)
T7 peptide: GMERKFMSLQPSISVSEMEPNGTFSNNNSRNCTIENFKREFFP

T8: CYSLTR2 Epitope SISVSEMEPNGTFSNNNSRNC (N-terminally biotinylated)
T8 peptide: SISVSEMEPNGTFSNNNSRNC

T9: Urotensin-2 receptor (UR-II-R) disordered region, MALTPESPSSFPGLAATGSSVPEPPGGPNATLNSSWASPTEPSSLEDLVATGTI (biotin (position not given))
T9 construct: also called Urotensin II R; GPCR2 (Urotensin II)
T9 peptide: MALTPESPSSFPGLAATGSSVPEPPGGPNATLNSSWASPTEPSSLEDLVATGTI

B1: S068 (designed binder)
chain: GDTRPRFLWQLKFECHFFNGTERVRLLERCIYNQEESVRFDSDVGEYRAVTELGRPDAEYWNSQKDLLEQRRAAVDTYCRHNYGVGESFTVQRRVEPKVTVYPSKTQPLQHHNLLVCSVSGFYPGSIEVRWFRNGQEEKAGVVSTGLIQNGDWTFQTLVMLETVPRSGEVYTCQVEHPSVTSPLTVEWRASGGGGSGGGGSGGGGIKEEHVIIQAEFYLNPDQSGEFMFDFDGDEIFHVDMAKKETVWRLEEFGRFASFEAQGALANIAVDKANLEIMTKRSNYTPITNVPPEVTVLTNSPVELREPNVLICFIDKFTPPVVNVTWLRNGKPVTTGVSETVFLPREDHLFRKFHYLPFLPSTEDVYDCRVEHWGLDEPLLKHWEFDAPSGGSHHHHHHLE
B2: S171 (designed binder)
chain: GDTRPRFLWQLKWECHFYNGTERVRLNERCNYNQEESVRFDSDVGEYRAVTELGRPDAEFSNSQKDNLEQRRAAVDTLCRHNYGVGESFTVQRRSGGGIKEEHVINQAEYYLNPDQSGEFKFDFDGDEIFHVDMAKKETVWRLEEFGRFAIIEAYGALANIAVDKANLEIMTKQSNYT
notes: Computationally derived scaffold
B3: S164 (designed binder)
chain: GIKEEHSIRQNEKYNNPDQSGNFEFHLDGQPIFRVDMQKKRTKWQLEEFGRFASFEAQGALANIAVFKINLEIMTKRSNQSEAGSHSWQLNFTCEFHEGTESVRLSERSYYNQENFVSFNSDVGEYRATTELGRPMAEYVNSQKDTLEQRRAAVDTYCRHNYGVGEYFTVQRR
notes: as for B2
B4: S077 (designed binder)
chain: KPVSKMRMATPLLMQALPMASGGGGSGGGGDTRPRFLWQLKFECHFFNGTERVRLLERCIYNQEESVRFDSDVGEYRAVTELGRPDAEYWNSQKDLLEQRRAAVDTYCRHNYGVGESFTVQRRSGGGIKEEHVIIQAEFYLNPDQSGEFMFDFDGDEIFHVDMAKKETVWRLEEFGRFASFEAQGALANIAVDKANLEIMTKRSNYTGGSHHHHHHLE
B5: S134 (designed binder)
chain: MVKYHHHHHHGGSENLYFQGMGDTRPRFLWQPKRECHFFNGTERVRFLDRYFYNQEESVRFDSDVGEFRAVTELGRPDAEYWNSQKDILEQARAAVDTYCRHNYGVVESFTVQRRVIKEEHVIIQAEFYLNPDQSGEFMFDFDGDEIFHVDMAKKETVWRLEEFGRFASFEAQGALANIAVDKANLEIMTKRSNYTPITN
B6: S143 (designed binder)
chain: MGDTRPRFLWQLKFECHFFNGTERVRLLERCIYNQEESVRFDSDVGEYRAVTELGRPDAEYWNSQKDLLEQRRAAVDTYCRHNYGVGESFTVQRRVIKEEHVIIQAEFYLNPDQSGEFMFDFDGDEIFHVDMAKKETVWRLEEFGRFASFEAQGALANIAVDKANLEIMTKRSNYTPTINGGSHHHHHH
B7: S193 (designed binder)
chain: MGSKARMATGALAQAGGSGGSMIKEEHVINQAEYYLNPDQSGEFKFDFDGDEIFHVDMAKKETVWRLEEFGRFASFEAQGALAHIAVDKANLEIMTKRSNYTPMGDTRPRFLWQLKYECHFFNGTERVRLNERCIYNQEESVRFDSDVGEYRAVTELGRPDAEQWNSQKDHLEQRRAAVDTKCRHNYGVGESFTVQGGSHHHHHH
B8: S194 (designed binder)
chain: MGIKEEHVINQAEYYLNPDQSGEFKFDFDGDEIFHVDMAKKETVWRLEEFGRFASFEAQGALAHIAVDKANLEIMTKRSNYTPMGGGSKARMATGALAQAGGSGGSGDTRPRFLWQLKYECHFFNGTERVRLNERCIYNQEESVRFDSDVGEYRAVTELGRPDAEQWNSQKDHLEQRRAAVDTKCRHNYGVGESFTVQGGSHHHHHH
B9: S180 (designed binder)
single chain: MKEEHVIIQAEFYLNPDQSGEFMFDFDGDEIFHVDMAKKETVWRLEEFGRFASFEAQGALANIAVDKANLEIMTKRSNYTPITNTRPRFLWQPKRECHFFNGTERVRFLDRYFYNQEESVRFDSDVGEFRAVTELGRPDAEYWNSQKDILEQARAAVDTYCRHNYGVVESFTVQRRVQGGSHHHHHHLE
B10: S058 (designed binder)
chain: GSHSMRYNYTSVSRPGRGEPRFISEGYVDDTQFVRFDSDAASPREEPRAPWIEQEGPEYWDRNTQIYKAQAQTDRESLRNLRGYYNQSEAGSHTLQSMYGCDVGPDGRLLRGHDQYYYDGKDYISLNEDLRSWTAADTAAQITQRKWEAAREAEQRRAYLEGECVEWLRRYLENGKDKLERADGGSHHHHHHLE
notes: Derived from MHC I proteins
B11: S065 (designed binder)
chain: GSHSMRYFYTSVSRPGRGEPRFISVGYVDDTQFVRFDSDAASPREEPRAPWIEQEGPEAWDRNTQIYKAQAQTDRESLRNLRGYYNQSEAGSHTLQSMYGCDVGPDGRLLRGHDQYAYDGKDSIALNEDLRSWTAADTAAQITQRYWEAAREAEQRRAYLEGECVEHLRRVLENGKDKLERADGGSHHHHHHLE
notes: Derived from MHC I proteins
B12: S189 (designed binder)
single chain: MGIKEEHVINQAEYCLNPDQSGEFKFDFDGDEIFHVDMAKKETVWRLEEFGRFASFEAQGALAHIAVDCANLEIMTKRSNYTPMGDTRPRFLWQLKYECHFFNGTERVRLNERCIYNQEESVRFDSDVGEYRAVTELGRPDAEQWNSQKDHLEQRRAAVDTKCRHNYGVGESFTVQGGSHHHHHH

Experiments:
[1] = biological target: T1, KAAG1 disordered region peptide, …; experiment: modified sandwich ELISA (scaffold coated, biotinylated peptide, streptavidin-HRP fluorescence)
[2] = biological target: T2, CD74 disordered region peptide (CLIP), …; experiment: modified sandwich ELISA, fluorescence grade (key: >400000, Strong binding)
[3] = biological target: T3, CYSLTR2 N-terminal disordered region, …; experiment: ELISA, scaffold coated on the plate, biotinylated peptide titrated, streptavidin-HRP fluorescence
Description: (§1) Binder proteins were coated on the surface of a high binding capacity 96 well plate by incubating 100 μL of protein at […] in a coating solution (10 mM Tris pH 8.8, 50 mM NaCl), overnight at 4 C. The next morning, the coating solution was aspirated out and wells were washed once with 300 μL ELISA wash buffer (lx PBS, 0.05% Tween-20) and solution was aspirated out. The wells were blocked with 200 μL of a blocking buffer (1×PBS, 0.05% Tween-20, 3% BSA) at room temperature for 1 hour. After one hour, the blocking solution was aspirated out and 100 μL of biotinylated polypeptide in a binding buffer (1×PBS, 0.05% Tween-20, 0.5% BSA) at various concentrations was added to the appropriate well and incubated for 20 minutes. Peptide solution was aspirated out after 20 minutes and wells were washed 5 times with 300 μL of ELISA wash buffer. To detect the biotinylated peptide, 100 μL of streptavidin-HRP (50 ng/mL) was added to each well and incubated for 1 hour. The wells were subsequently washed 5 times with 300 μL of ELISA wash buffer. 100 μL of QuantaBlu Fluorogenic Peroxidase substrate solution was added to each well, incubated for 30 minutes and reaction stopped by adding 100 μL of stop solution. Fluorescent signal from each well was measured using a Biotek Cytation5 plate reader by exciting the fluorophore at […] and measuring emission at 420 nm. Fluorescent signals were plotted as a function of polypeptide concentration.

[4] = biological target: T1, KAAG1 disordered region peptide, …; experiment: as above
Description: as §1

[5] = biological target: T4, CD40LG Epitope NKEETKKENSFEMQKGDQNPQIAAH; experiment: as above
Description: as §1

[6] = biological target: T5, KCNA6 Epitope QQQEQQPASGGGGQNGQQAMS; experiment: as above
Description: as §1

[7] = biological target: T6, TNFRSF13B disordered region peptide, …; experiment: as above
Description: as §1

[8] = biological target: T7, GMERKFMSLQPSISVSEMEPNGTFSNNNSRNCTIENFKRE …; experiment: as above
Description: as §1

[9] = biological target: T8, CYSLTR2 Epitope SISVSEMEPNGTFSNNNSRNC; experiment: as above
Description: as §1

[10] = biological target: T9, Urotensin-2 receptor (UR-II-R) …; experiment: modified sandwich ELISA (scaffold coated, biotinylated peptide, streptavidin-HRP fluorescence)

Row | Binder | binding result [1] | binding result [4] | binding result [8] | binding result [9] | other results
1 | B1 | no binding (tested: <5000 (fluorescence signal, key)) |  |  |  | fluorescent signal [2]: > 400000 fluorescentsignal
2 | B2 |  | no binding (tested: 10000 nM) |  |  | binding result [3]: no binding (tested: 10000 nM)
3 | B3 |  | no binding (tested: 10000 nM) |  |  | binding result [3]: no binding (tested: 10000 nM)
4 | B4 | no binding (tested: <5000 (fluorescence signal, key)) |  |  |  | fluorescent signal [2]: > 400000 fluorescentsignal
5 | B5 | no binding (tested: <5000 (fluorescence signal, key)) |  |  |  | 
6 | B6 | no binding (tested: <5000 (fluorescence signal, key)) |  |  |  | fluorescent signal [2]: > 400000 fluorescentsignal
7 | B7 |  | no binding (tested: 10000 nM) | binds | binds | binding result [5]: no binding (tested: 10000 nM); binding result [6]: no binding (tested: 10000 nM); binding result [7]: no binding (tested: 10000 nM)
8 | B8 |  | no binding (tested: 10000 nM) | binds | binds | binding result [5]: no binding (tested: 10000 nM); binding result [6]: no binding (tested: 10000 nM); binding result [7]: no binding (tested: 10000 nM)
9 | B9 |  |  | binds | binds | 
10 | B10 |  | binds |  |  | binding result [10]: no binding (tested: <5000 (fluorescence signal, key))
11 | B11 |  | no binding (tested: 10000 nM) |  |  | binding result [10]: no binding (tested: <5000 (fluorescence signal, key))
12 | B12 |  |  | binds | binds | 
